In the test the target is H-2Kb-restricted ova peptide SIINFEKL presented on H-2Kb (chicken). Kind of test: cell-based or functional assay.

transgenic OT-I T-cell receptor (TCR) returned an IFN-gamma ELISPOT, spots per well (spots per well) of more than 1000.
